Data: article PMC2665237
Where two headings read alike, the source gives them in different places.

What was measured:
LGP2 RD K634E = target: T1, LGP2 RD K634E (human, UniProt Q96C10 537-678, K634E); test: fluorescence anisotropy
T1 sequence: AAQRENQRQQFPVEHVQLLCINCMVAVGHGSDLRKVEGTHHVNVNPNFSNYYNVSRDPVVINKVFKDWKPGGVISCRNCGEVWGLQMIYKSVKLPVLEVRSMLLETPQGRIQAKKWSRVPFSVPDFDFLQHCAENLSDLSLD

LGP2 RD K626E = target: T2, LGP2 RD K626E (human, UniProt Q96C10 537-678, K626E); test: fluorescence anisotropy
T2 sequence: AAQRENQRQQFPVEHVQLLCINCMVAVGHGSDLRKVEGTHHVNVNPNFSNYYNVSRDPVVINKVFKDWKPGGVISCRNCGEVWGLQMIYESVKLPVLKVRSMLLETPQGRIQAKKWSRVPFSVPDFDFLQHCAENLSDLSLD

LGP2 RD K605E = target: T3, LGP2 RD K605E (human, UniProt Q96C10 537-678, K605E); test: fluorescence anisotropy
T3 sequence: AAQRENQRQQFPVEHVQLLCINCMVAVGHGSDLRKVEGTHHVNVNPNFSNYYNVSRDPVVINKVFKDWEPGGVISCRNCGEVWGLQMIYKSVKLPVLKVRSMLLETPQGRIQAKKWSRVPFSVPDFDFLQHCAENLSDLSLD

LGP2 RD N583D = target: T4, LGP2 RD N583D (human, UniProt Q96C10 537-678, N583D); test: fluorescence anisotropy
T4 sequence: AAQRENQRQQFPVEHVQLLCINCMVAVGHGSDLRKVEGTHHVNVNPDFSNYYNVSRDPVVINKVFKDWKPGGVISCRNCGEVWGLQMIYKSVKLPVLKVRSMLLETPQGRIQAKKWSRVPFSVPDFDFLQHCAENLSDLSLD

LGP2 RD L621A = target: T5, LGP2 RD L621A (human, UniProt Q96C10 537-678, L621A); test: fluorescence anisotropy
T5 sequence: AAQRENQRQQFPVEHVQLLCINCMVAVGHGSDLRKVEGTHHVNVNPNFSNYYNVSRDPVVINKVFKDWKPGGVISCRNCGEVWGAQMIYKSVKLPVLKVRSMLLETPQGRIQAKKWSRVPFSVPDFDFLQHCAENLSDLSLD

LGP2 RD P606K = target: T6, LGP2 RD P606K (human, UniProt Q96C10 537-678, P606K); test: fluorescence anisotropy
T6 sequence: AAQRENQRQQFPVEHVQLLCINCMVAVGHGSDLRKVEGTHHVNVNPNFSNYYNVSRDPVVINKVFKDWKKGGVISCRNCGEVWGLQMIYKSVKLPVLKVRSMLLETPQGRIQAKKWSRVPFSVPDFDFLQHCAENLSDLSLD

LGP2 RD H576Y = target: T7, LGP2 RD H576Y (human, UniProt Q96C10 537-678, H576Y); test: fluorescence anisotropy
T7 sequence: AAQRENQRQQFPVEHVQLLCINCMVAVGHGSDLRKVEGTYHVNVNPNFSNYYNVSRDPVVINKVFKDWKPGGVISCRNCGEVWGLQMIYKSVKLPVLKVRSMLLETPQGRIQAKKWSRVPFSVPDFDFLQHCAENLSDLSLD

LGP2 RD W604A = target: T8, LGP2 RD W604A (human, UniProt Q96C10 537-678, W604A); test: fluorescence anisotropy
T8 sequence: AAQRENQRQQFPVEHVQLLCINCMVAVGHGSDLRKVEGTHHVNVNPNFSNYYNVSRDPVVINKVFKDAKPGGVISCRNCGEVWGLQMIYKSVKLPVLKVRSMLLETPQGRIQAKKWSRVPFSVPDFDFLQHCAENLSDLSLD

LGP2 RD wt [1] = target: T9, LGP2 RD wt (human, UniProt Q96C10 537-678); test: fluorescence anisotropy
T9 sequence: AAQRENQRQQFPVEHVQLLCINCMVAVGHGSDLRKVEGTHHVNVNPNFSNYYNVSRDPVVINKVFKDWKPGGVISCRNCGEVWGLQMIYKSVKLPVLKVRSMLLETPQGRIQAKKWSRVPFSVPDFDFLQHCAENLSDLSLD

LGP2 RD wt [2] = target: T9, LGP2 RD wt; test: competition
LGP2 RD wt [3] = target: T9, LGP2 RD wt; test: competition; remark: listed apart in the source

B1: 25 bp dsRNA (dsRNA)
RNA 1: GCUUGUCGGGAGCGCCACCCUCUGC
RNA 2: GCAGAGGGUGGCGCUCCCGACAAGC
LGP2 RD K634E
  binding result: no binding
LGP2 RD K626E
  Kd: 51 ± 5 nM
LGP2 RD K605E
  Kd: 140 ± 16 nM
LGP2 RD N583D
  Kd: 38 ± 4 nM
LGP2 RD L621A
  Kd: 165 ± 26 nM
LGP2 RD P606K
  Kd: 230 ± 10 nM
LGP2 RD H576Y
  Kd: 304 ± 10 nM
LGP2 RD W604A
  Kd: 136 ± 6 nM
LGP2 RD wt [1]
  Kd: 68 ± 6 nM

B2: 5'OH dsRNA 19 bp (dsRNA)
RNA 1: GCAUGCGACCUCUGUUUGA
RNA 2: UCAAACAGAGGUCGCAUGC
LGP2 RD wt [2]
  binding result: binds

B3: 5'PPP dsRNA 19 bp (dsRNA)
RNA 1: GCAUGCGACCUCUGUUUGA
RNA 2: UCAAACAGAGGUCGCAUGC
modifications: 5'-triphosphate on sense strand
LGP2 RD wt [3]
  binding result: binds
